The source of these data is publication PMC12756731, “Substitution of Zn^2+ with Ni^2+ Alters Kinetic Steps in D‑2-Hydroxyglutarate Dehydrogenase from Pseudomonas aeruginosa PAO1” (ACS Omega, 2025).

For data set [1], the target named is T1, D-2-hydroxyglutarate dehydrogenase (P. aeruginosa D2HGDH; EFAD-Zn^2+, EFAD-Ni^2+) (Pseudomonas aeruginosa, UniProt Q9I6H4).
T1 construct: gene PA0317; 6 His-tag at the tail of the gene (C-terminal), pET20b(+), E. coli Rosetta(DE3)pLysS; loaded with Zn2+ or Ni2+
T1 sequence (Q9I6H4 1-464): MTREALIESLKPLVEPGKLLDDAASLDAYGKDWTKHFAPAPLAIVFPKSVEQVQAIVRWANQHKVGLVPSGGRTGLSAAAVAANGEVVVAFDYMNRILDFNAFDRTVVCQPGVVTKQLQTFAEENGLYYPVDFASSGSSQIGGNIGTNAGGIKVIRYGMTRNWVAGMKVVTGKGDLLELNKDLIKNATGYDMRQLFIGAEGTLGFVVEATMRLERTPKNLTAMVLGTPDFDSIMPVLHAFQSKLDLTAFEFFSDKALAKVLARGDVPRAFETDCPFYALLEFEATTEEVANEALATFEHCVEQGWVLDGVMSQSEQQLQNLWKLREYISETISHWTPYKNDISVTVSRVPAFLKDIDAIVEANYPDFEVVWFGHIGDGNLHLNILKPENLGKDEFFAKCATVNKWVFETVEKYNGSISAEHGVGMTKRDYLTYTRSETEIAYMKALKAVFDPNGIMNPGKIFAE
As to the kind of experiment: UV-vis absorbance of purified enzyme with bound flavin. Format: binding. As to conditions: co-purified oxidized FAD in EFAD-Ni2+ enzyme; maxima at 380 and 450 nm.

Substrate in data set [2]: O=C(O)CC[C@@H](O)C(=O)O
As to the kind of experiment: PMS-driven oxygen consumption, Clark-type oxygen electrode, initial rates. Format: biochemical, Pseudomonas aeruginosa. Conditions: 1 mM PMS (saturating), 25 mM NaPO4, pH 7.4, 25 °C. From the text:
PMS-driven oxygen consumption, Clark-type oxygen electrode, initial rates on D-2-hydroxyglutarate dehydrogenase (P. aeruginosa D2HGDH; EFAD-Zn^2+, EFAD-Ni^2+)

Where [3] appears, read: Ni2+-substituted enzyme (EFAD-Ni2+), non-native metal.
Where [4] appears, read: native Zn2+-loaded enzyme (EFAD-Zn2+).

For `Cc1cc2nc3c(=O)[nH]c(=O)nc-3n(C[C@H](O)[C@H](O)[C@H](O)COP(=O)(O)OP(=O)(O)OC[C@H]3O[C@@H](n4cnc5c(N)ncnc54)[C@H](O)[C@@H]3O)c2cc1C` [FAD], the “UV-vis absorbance of purified enzyme with bound flavin” value in data set [1] was “enzyme was in a fully oxidized state with the bound FAD cofactor”.

B1: D-2-hydroxyglutarate dehydrogenase (P. aeruginosa D2HGDH; EFAD-Zn^2+, EFAD-Ni^2+) (Pseudomonas aeruginosa PAO1) (protein)
chain: T1 sequence (Q9I6H4 1-464)
notes: 6 His-tag at the tail of the gene (C-terminal), pET20b(+), E. coli Rosetta(DE3)pLysS; loaded with Zn2+ or Ni2+
Take B1: in data set [2] (setting [3]), the Km (usually the substrate concentration at which the rate is half of its maximum) worked out at 140 ± 10 µM; the kcat – broadly, the number of substrate molecules converted per active site and unit of time at saturation – turned out to be 18 ± 1 s⁻¹; the kcat/Km (usually the second-order rate constant that governs catalysis at low substrate concentration) was found to be 130000 ± 9000 M⁻¹ s⁻¹. For the same molecule, in data set [2] (setting [4]), the Michaelis constant (Km) came out at 150 ± 10 µM, the kcat amounted to 30 ± 1 s⁻¹ and the specificity constant (kcat/Km) amounted to 205000 ± 10000 M⁻¹ s⁻¹.
